± gives the uncertainty stated by the source.

This series is described as follows: abundance fitness (aPCA) (normalised: wild type 0, dead -1); higher = more abundant; growth selection in yeast, the domain comes from the species named. To be noted: Homo sapiens.
Substance “E3 ubiquitin-protein ligase NEDD4-like L206N, Q96PU5” registered an abundance fitness of -0.016 ± 0.11.
With “E3 ubiquitin-protein ligase NEDD4-like L206P, Q96PU5” the figure was -0.707 ± 0.11.
With “E3 ubiquitin-protein ligase NEDD4-like L206Q, Q96PU5” the figure was 0.021 ± 0.091.
As for “E3 ubiquitin-protein ligase NEDD4-like L206R, Q96PU5”, the figure is 0.04 ± 0.056.
Regarding “E3 ubiquitin-protein ligase NEDD4-like L206S, Q96PU5”, the abundance fitness is 0.065 ± 0.054.
With “E3 ubiquitin-protein ligase NEDD4-like L206T, Q96PU5” the figure was 0.011 ± 0.08; with “E3 ubiquitin-protein ligase NEDD4-like L206V, Q96PU5”, -0.056 ± 0.062.
Take “E3 ubiquitin-protein ligase NEDD4-like L206W, Q96PU5”: the abundance fitness was -0.034 ± 0.077.
As for “E3 ubiquitin-protein ligase NEDD4-like L226A, Q96PU5”, the figure is 0.021 ± 0.072.
With “E3 ubiquitin-protein ligase NEDD4-like L226C, Q96PU5” the figure was 0.063 ± 0.071.
On to “E3 ubiquitin-protein ligase NEDD4-like L226D, Q96PU5”, for which the abundance fitness is -0.023 ± 0.088.
On to “E3 ubiquitin-protein ligase NEDD4-like L226E, Q96PU5”, for which the abundance fitness was -0.203 ± 0.092.
With “E3 ubiquitin-protein ligase NEDD4-like L226F, Q96PU5” the figure was -0.079 ± 0.1; with “E3 ubiquitin-protein ligase NEDD4-like L226G, Q96PU5”, -0.117 ± 0.057; with “E3 ubiquitin-protein ligase NEDD4-like L226H, Q96PU5”, -0.065 ± 0.065.
As for “E3 ubiquitin-protein ligase NEDD4-like L226I, Q96PU5”, the figure is -0.186 ± 0.12; as for “E3 ubiquitin-protein ligase NEDD4-like L226M, Q96PU5”, 0.011 ± 0.093.
For the substance “E3 ubiquitin-protein ligase NEDD4-like L226N, Q96PU5”, the abundance fitness was found to be 0.01 ± 0.09.
With “E3 ubiquitin-protein ligase NEDD4-like L226P, Q96PU5” the figure was 0.104 ± 0.059.
“E3 ubiquitin-protein ligase NEDD4-like L226R, Q96PU5” came in with an abundance fitness of -0.007 ± 0.065.
As for “E3 ubiquitin-protein ligase NEDD4-like L226S, Q96PU5”, the figure is 0.034 ± 0.07; as for “E3 ubiquitin-protein ligase NEDD4-like L226V, Q96PU5”, -0.11 ± 0.063; as for “E3 ubiquitin-protein ligase NEDD4-like L226W, Q96PU5”, -0.309 ± 0.069.
With “E3 ubiquitin-protein ligase NEDD4-like L226Y, Q96PU5” the figure was -0.043 ± 0.091.
Regarding “E3 ubiquitin-protein ligase NEDD4-like M227A, Q96PU5”, the abundance fitness was -0.077 ± 0.064.
With “E3 ubiquitin-protein ligase NEDD4-like M227C, Q96PU5” the figure was -0.05 ± 0.059; with “E3 ubiquitin-protein ligase NEDD4-like M227D, Q96PU5”, 0.065 ± 0.12; with “E3 ubiquitin-protein ligase NEDD4-like M227G, Q96PU5”, -0.039 ± 0.064.
With “E3 ubiquitin-protein ligase NEDD4-like M227H, Q96PU5” the figure was 0.092 ± 0.077.
As for “E3 ubiquitin-protein ligase NEDD4-like M227I, Q96PU5”, the figure is -0.135 ± 0.073; as for “E3 ubiquitin-protein ligase NEDD4-like M227K, Q96PU5”, -0.015 ± 0.093.
The substance “E3 ubiquitin-protein ligase NEDD4-like M227L, Q96PU5” displayed an abundance fitness of -0.027 ± 0.067.
As for “E3 ubiquitin-protein ligase NEDD4-like M227N, Q96PU5”, the figure is -0.024 ± 0.099; as for “E3 ubiquitin-protein ligase NEDD4-like M227P, Q96PU5”, 0.145 ± 0.09; as for “E3 ubiquitin-protein ligase NEDD4-like M227Q, Q96PU5”, -0.068 ± 0.1.
Take “E3 ubiquitin-protein ligase NEDD4-like M227R, Q96PU5”: the abundance fitness amounted to 0.001 ± 0.054.
With “E3 ubiquitin-protein ligase NEDD4-like M227S, Q96PU5” the figure was 0.055 ± 0.063; with “E3 ubiquitin-protein ligase NEDD4-like M227T, Q96PU5”, -0.022 ± 0.089.
With “E3 ubiquitin-protein ligase NEDD4-like M227V, Q96PU5” the figure was -0.285 ± 0.068.
As for “E3 ubiquitin-protein ligase NEDD4-like M227W, Q96PU5”, the figure is -0.313 ± 0.07.
“E3 ubiquitin-protein ligase NEDD4-like M227Y, Q96PU5” had an abundance fitness of -0.184 ± 0.082.
With “E3 ubiquitin-protein ligase NEDD4-like N205A, Q96PU5” the figure was -0.057 ± 0.06; with “E3 ubiquitin-protein ligase NEDD4-like N205C, Q96PU5”, -0.142 ± 0.059; with “E3 ubiquitin-protein ligase NEDD4-like N205D, Q96PU5”, -0.085 ± 0.07.
As for “E3 ubiquitin-protein ligase NEDD4-like N205E, Q96PU5”, the figure is -0.105 ± 0.05; as for “E3 ubiquitin-protein ligase NEDD4-like N205F, Q96PU5”, -0.544 ± 0.11; as for “E3 ubiquitin-protein ligase NEDD4-like N205G, Q96PU5”, -0.321 ± 0.054.
As for “E3 ubiquitin-protein ligase NEDD4-like N205H, Q96PU5”, the figure is -0.062 ± 0.11; as for “E3 ubiquitin-protein ligase NEDD4-like N205I, Q96PU5”, -0.111 ± 0.098.
Substance “E3 ubiquitin-protein ligase NEDD4-like N205K, Q96PU5” returned an abundance fitness of 0.033 ± 0.097.
With “E3 ubiquitin-protein ligase NEDD4-like N205L, Q96PU5” the figure was -0.196 ± 0.07; with “E3 ubiquitin-protein ligase NEDD4-like N205M, Q96PU5”, -0.109 ± 0.055.
As for “E3 ubiquitin-protein ligase NEDD4-like N205P, Q96PU5”, the abundance fitness is -0.012 ± 0.093.
As for “E3 ubiquitin-protein ligase NEDD4-like N205Q, Q96PU5”, the figure is -0.087 ± 0.069; as for “E3 ubiquitin-protein ligase NEDD4-like N205R, Q96PU5”, -0.013 ± 0.054; as for “E3 ubiquitin-protein ligase NEDD4-like N205T, Q96PU5”, 0.029 ± 0.092.
As for “E3 ubiquitin-protein ligase NEDD4-like N205V, Q96PU5”, the abundance fitness was -0.232 ± 0.068.
As for “E3 ubiquitin-protein ligase NEDD4-like N205Y, Q96PU5”, the figure is 0.049 ± 0.094; as for “E3 ubiquitin-protein ligase NEDD4-like N213A, Q96PU5”, -0.382 ± 0.071.
As for “E3 ubiquitin-protein ligase NEDD4-like N213C, Q96PU5”, the figure is -0.042 ± 0.14; as for “E3 ubiquitin-protein ligase NEDD4-like N213D, Q96PU5”, -0.206 ± 0.075; as for “E3 ubiquitin-protein ligase NEDD4-like N213E, Q96PU5”, -0.404 ± 0.11.
With “E3 ubiquitin-protein ligase NEDD4-like N213F, Q96PU5” the figure was -0.507 ± 0.11; with “E3 ubiquitin-protein ligase NEDD4-like N213G, Q96PU5”, -0.326 ± 0.084; with “E3 ubiquitin-protein ligase NEDD4-like N213K, Q96PU5”, -0.752 ± 0.18.
“E3 ubiquitin-protein ligase NEDD4-like N213L, Q96PU5” came in with an abundance fitness of -0.709 ± 0.1.
“E3 ubiquitin-protein ligase NEDD4-like N213M, Q96PU5” yielded an abundance fitness of -0.441 ± 0.11.
With “E3 ubiquitin-protein ligase NEDD4-like N213P, Q96PU5” the figure was -0.383 ± 0.24; with “E3 ubiquitin-protein ligase NEDD4-like N213Q, Q96PU5”, -0.295 ± 0.089; with “E3 ubiquitin-protein ligase NEDD4-like N213R, Q96PU5”, -0.56 ± 0.069.
As for “E3 ubiquitin-protein ligase NEDD4-like N213S, Q96PU5”, the figure is 0.213 ± 0.12.
Substance “E3 ubiquitin-protein ligase NEDD4-like N213T, Q96PU5” showed an abundance fitness of -0.428 ± 0.1.
The substance “E3 ubiquitin-protein ligase NEDD4-like N213V, Q96PU5” had an abundance fitness of -0.88 ± 0.13.
Regarding “E3 ubiquitin-protein ligase NEDD4-like N213W, Q96PU5”, the abundance fitness was -0.753 ± 0.1.
As for “E3 ubiquitin-protein ligase NEDD4-like N213Y, Q96PU5”, the figure is -0.349 ± 0.39.
With “E3 ubiquitin-protein ligase NEDD4-like N215A, Q96PU5” the figure was -0.029 ± 0.072.
With “E3 ubiquitin-protein ligase NEDD4-like N215C, Q96PU5” the figure was -0.178 ± 0.084; with “E3 ubiquitin-protein ligase NEDD4-like N215D, Q96PU5”, 0.015 ± 0.086.
“E3 ubiquitin-protein ligase NEDD4-like N215E, Q96PU5” came in with an abundance fitness of -0.086 ± 0.077.
“E3 ubiquitin-protein ligase NEDD4-like N215F, Q96PU5” returned an abundance fitness of -0.169 ± 0.1.
As for “E3 ubiquitin-protein ligase NEDD4-like N215G, Q96PU5”, the figure is -0.036 ± 0.05; as for “E3 ubiquitin-protein ligase NEDD4-like N215H, Q96PU5”, -0.031 ± 0.1; as for “E3 ubiquitin-protein ligase NEDD4-like N215I, Q96PU5”, -0.077 ± 0.084.
With “E3 ubiquitin-protein ligase NEDD4-like N215K, Q96PU5” the figure was 0.165 ± 0.098.

Source of the values: the Human Domainome abundance scans (Beltran et al. 2025).
